# Measured values taken from paper PMC2270275, “Thermal dependency of RAG1 self-association properties” (BMC Biochemistry, 2008).
# B1: GST-core RAG2 (domain or fragment, UniProt P21784 1-387, looked up)
# chain: MSLQMVTVGHNIALIQPGFSLMNFDGQVFFFGQKGWPKRSCPTGVFHFDIKQNHLKLKPAIFSKDSCYLPPLRYPATCSYKGSIDSDKHQYIIHGGKTPNNELSDKIYIMSVACKNNKKVTFRCTEKDLVGDVPEPRYGHSIDVVYSRGKSMGVLFGGRSYMPSTQRTTEKWNSVADCLPHVFLIDFEFGCATSYILPELQDGLSFHVSIARNDTVYILGGHSLASNIRPANLYRIRVDLPLGTPAVNCTVLPGGISVSSAILTQTNNDEFVIVGGYQLENQKRMVCSLVSLGDNTIEISEMETPDWTSDIKHSKIWFGSNMGNGTIFLGIPGDNKQAMSEAFYFYTLRCSEEDLSEDQKIVSNSQTSTEDPGDSTPFEDSEEFCFS
# notes: RAG2 core region; core RAG2 portion printed as 42.6 kDa; Predicted monomer mass 68.9 kDa; The authors put the dimeric state down to the GST moiety, which is known to dimerize; also called core RAG2 fused to glutathione S-transferase; GST-RAG2
# Target: the molecule itself
# Test: SEC-MALS; MALLS-SEC of purified GST-core RAG2 (0.01-0.03 mg), kept at 4°C before SEC; Superdex 200; 25 mM Tris pH 8.0, 150 mM KCl, 2 mM dithiothreitol; 40-200 nM in Peak 2
protein,measurement,value
B1,stoichiometry N,2
